Our source for the Kd values is US20220389118A1 (Chugai, published 2022).

The test has as its target T1, human FcRn (human, UniProt P55899 24-297; P61769 21-119).
T1 construct: the construct is not described
Briefly: binding to FcRn at pH 6.0; method not stated.

T1 sequence (P55899 24-297 limits assumed, chain 1 of 2): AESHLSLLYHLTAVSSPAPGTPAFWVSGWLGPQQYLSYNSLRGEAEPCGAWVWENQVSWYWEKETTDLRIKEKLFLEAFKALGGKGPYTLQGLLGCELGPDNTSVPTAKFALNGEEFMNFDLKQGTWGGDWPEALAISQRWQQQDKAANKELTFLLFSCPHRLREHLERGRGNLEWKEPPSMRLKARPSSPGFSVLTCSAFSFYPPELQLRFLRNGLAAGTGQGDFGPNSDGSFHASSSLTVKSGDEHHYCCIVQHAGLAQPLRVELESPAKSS
T1 sequence (P61769 21-119 limits assumed, chain 2 of 2): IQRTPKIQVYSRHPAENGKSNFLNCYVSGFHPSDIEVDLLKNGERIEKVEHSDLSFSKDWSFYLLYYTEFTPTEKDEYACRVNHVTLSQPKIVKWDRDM

B1: Fv4-F1384 (antibody, human IgG1, kappa)
heavy: QVQLQESGPGLVKPSETLSLTCAVSGHSISHDHAWSWVRQPPGEGLEWIGFISYSGITNYNPSLQGRVTISRDNSKNTLYLQMNSLRAEDTAVYYCARSLARTTAMDYWGEGTLVTVSSASTKGPSVFPLAPSSKSTSGGTAALGCLVKDYFPEPVTVSWNSGALTSGVHTFPAVLQSSGLYSLSSVVTVPSSSLGTQTYICNVNHKPSNTKVDKKVEPKSCDKTHTCPPCPAPELLGGPSVFLFPPKPKDTLMISRTPEVTCVVVDVSHEDPEVKFNWYVDGVEVHNAKTKPREEQYNSTYRVVSVLTVLHQDWLNGKEYKCKVSNKALPAPIEKTISKAKGQPREPQVYTLPPSRDELTKNQVSLTCLVKGFYPSDIAVEWESNGQPENNYKTTPPVLDSDGSFFLYSKLTVDKSRWQQGNVFSCAVLHEALHSHYTQKSLSLSP
light: DIQMTQSPSSLSASVGDSVTITCQASTDISSHLNWYQQKPGKAPELLIYYGSHLLSGVPSRFSGSGSGTDFTFTISSLEAEDAATYYCGQGNRLPYTFGQGTKVEIERTVAAPSVFIFPPSDEQLKSGTASVVCLLNNFYPREAKVQWKVDNALQSGNSQESVTEQDSKDSTYSLSSTLTLSKADYEKHKVYACEVTHQGLSSPVTKSFNRGEC
notes: Variant of Fv4-LS; copies: 2 + 2
A word on the Kd: it is the concentration at which binding is half-saturated. A low value points to a tighter complex. Turning to B1, the Kd came out at 86 nM.

B2: Fv4-F1388 (antibody, human IgG1, kappa)
heavy: QVQLQESGPGLVKPSETLSLTCAVSGHSISHDHAWSWVRQPPGEGLEWIGFISYSGITNYNPSLQGRVTISRDNSKNTLYLQMNSLRAEDTAVYYCARSLARTTAMDYWGEGTLVTVSSASTKGPSVFPLAPSSKSTSGGTAALGCLVKDYFPEPVTVSWNSGALTSGVHTFPAVLQSSGLYSLSSVVTVPSSSLGTQTYICNVNHKPSNTKVDKKVEPKSCDKTHTCPPCPAPELLGGPSVFLFPPKPKDTLMISRTPEVTCVVVDVSHEDPEVKFNWYVDGVEVHNAKTKPREEQYNSTYRVVSVLTVLHQDWLNGKEYKCKVSNKALPAPIEKTISKAKGQPREPQVYTLPPSRDELTKNQVSLTCLVKGFYPSDIAVEWESNGQPENNYKTTPPVLDSDGSFFLYSKLTVDKSRWQQGNVFSCSVLHEALHSHFTQKSLSLSP
light: DIQMTQSPSSLSASVGDSVTITCQASTDISSHLNWYQQKPGKAPELLIYYGSHLLSGVPSRFSGSGSGTDFTFTISSLEAEDAATYYCGQGNRLPYTFGQGTKVEIERTVAAPSVFIFPPSDEQLKSGTASVVCLLNNFYPREAKVQWKVDNALQSGNSQESVTEQDSKDSTYSLSSTLTLSKADYEKHKVYACEVTHQGLSSPVTKSFNRGEC
notes: as for B1
B2: the Kd came out at 80 nM.

B3: Fv4-F1385 (antibody, human IgG1, kappa)
heavy: QVQLQESGPGLVKPSETLSLTCAVSGHSISHDHAWSWVRQPPGEGLEWIGFISYSGITNYNPSLQGRVTISRDNSKNTLYLQMNSLRAEDTAVYYCARSLARTTAMDYWGEGTLVTVSSASTKGPSVFPLAPSSKSTSGGTAALGCLVKDYFPEPVTVSWNSGALTSGVHTFPAVLQSSGLYSLSSVVTVPSSSLGTQTYICNVNHKPSNTKVDKKVEPKSCDKTHTCPPCPAPELLGGPSVFLFPPKPKDTLMISRTPEVTCVVVDVSHEDPEVKFNWYVDGVEVHNAKTKPREEQYNSTYRVVSVLTVLHQDWLNGKEYKCKVSNKALPAPIEKTISKAKGQPREPQVYTLPPSRDELTKNQVSLTCLVKGFYPSDIAVEWESNGQPENNYKTTPPVLDSDGSFFLYSKLTVDKSRWQQGNVFSCQVLHEALHSHYTQKSLSLSP
light: DIQMTQSPSSLSASVGDSVTITCQASTDISSHLNWYQQKPGKAPELLIYYGSHLLSGVPSRFSGSGSGTDFTFTISSLEAEDAATYYCGQGNRLPYTFGQGTKVEIERTVAAPSVFIFPPSDEQLKSGTASVVCLLNNFYPREAKVQWKVDNALQSGNSQESVTEQDSKDSTYSLSSTLTLSKADYEKHKVYACEVTHQGLSSPVTKSFNRGEC
notes: as for B1
For B3, the Kd stood at 77 nM. This Kd and that of the molecule before are within 1.5-fold of each other.

B4: Fv4-F1389 (antibody, human IgG1, kappa)
heavy: QVQLQESGPGLVKPSETLSLTCAVSGHSISHDHAWSWVRQPPGEGLEWIGFISYSGITNYNPSLQGRVTISRDNSKNTLYLQMNSLRAEDTAVYYCARSLARTTAMDYWGEGTLVTVSSASTKGPSVFPLAPSSKSTSGGTAALGCLVKDYFPEPVTVSWNSGALTSGVHTFPAVLQSSGLYSLSSVVTVPSSSLGTQTYICNVNHKPSNTKVDKKVEPKSCDKTHTCPPCPAPELLGGPSVFLFPPKPKDTLMISRTPEVTCVVVDVSHEDPEVKFNWYVDGVEVHNAKTKPREEQYNSTYRVVSVLTVLHQDWLNGKEYKCKVSNKALPAPIEKTISKAKGQPREPQVYTLPPSRDELTKNQVSLTCLVKGFYPSDIAVEWESNGQPENNYKTTPPVLDSDGSFFLYSKLTVDKSRWQQGNVFSCSVLHEALHSHTTQKSLSLSP
light: DIQMTQSPSSLSASVGDSVTITCQASTDISSHLNWYQQKPGKAPELLIYYGSHLLSGVPSRFSGSGSGTDFTFTISSLEAEDAATYYCGQGNRLPYTFGQGTKVEIERTVAAPSVFIFPPSDEQLKSGTASVVCLLNNFYPREAKVQWKVDNALQSGNSQESVTEQDSKDSTYSLSSTLTLSKADYEKHKVYACEVTHQGLSSPVTKSFNRGEC
notes: as for B1
B4 showed a Kd of 68 nM. The Kd values of the last two molecules are within 1.5-fold of each other.

B5: Fv4-F1390 (antibody, human IgG1, kappa)
heavy: QVQLQESGPGLVKPSETLSLTCAVSGHSISHDHAWSWVRQPPGEGLEWIGFISYSGITNYNPSLQGRVTISRDNSKNTLYLQMNSLRAEDTAVYYCARSLARTTAMDYWGEGTLVTVSSASTKGPSVFPLAPSSKSTSGGTAALGCLVKDYFPEPVTVSWNSGALTSGVHTFPAVLQSSGLYSLSSVVTVPSSSLGTQTYICNVNHKPSNTKVDKKVEPKSCDKTHTCPPCPAPELLGGPSVFLFPPKPKDTLMISRTPEVTCVVVDVSHEDPEVKFNWYVDGVEVHNAKTKPREEQYNSTYRVVSVLTVLHQDWLNGKEYKCKVSNKALPAPIEKTISKAKGQPREPQVYTLPPSRDELTKNQVSLTCLVKGFYPSDIAVEWESNGQPENNYKTTPPVLDSDGSFFLYSKLTVDKSRWQQGNVFSCSVLHEALHSHHTQKSLSLSP
light: DIQMTQSPSSLSASVGDSVTITCQASTDISSHLNWYQQKPGKAPELLIYYGSHLLSGVPSRFSGSGSGTDFTFTISSLEAEDAATYYCGQGNRLPYTFGQGTKVEIERTVAAPSVFIFPPSDEQLKSGTASVVCLLNNFYPREAKVQWKVDNALQSGNSQESVTEQDSKDSTYSLSSTLTLSKADYEKHKVYACEVTHQGLSSPVTKSFNRGEC
notes: as for B1
B5: the Kd came to 400 nM. This Kd lies about 5.9-fold higher than the previous one.

B6: Fv4-F1386 (antibody, human IgG1, kappa)
heavy: QVQLQESGPGLVKPSETLSLTCAVSGHSISHDHAWSWVRQPPGEGLEWIGFISYSGITNYNPSLQGRVTISRDNSKNTLYLQMNSLRAEDTAVYYCARSLARTTAMDYWGEGTLVTVSSASTKGPSVFPLAPSSKSTSGGTAALGCLVKDYFPEPVTVSWNSGALTSGVHTFPAVLQSSGLYSLSSVVTVPSSSLGTQTYICNVNHKPSNTKVDKKVEPKSCDKTHTCPPCPAPELLGGPSVFLFPPKPKDTLMISRTPEVTCVVVDVSHEDPEVKFNWYVDGVEVHNAKTKPREEQYNSTYRVVSVLTVLHQDWLNGKEYKCKVSNKALPAPIEKTISKAKGQPREPQVYTLPPSRDELTKNQVSLTCLVKGFYPSDIAVEWESNGQPENNYKTTPPVLDSDGSFFLYSKLTVDKSRWQQGNVFSCYVLHEALHSHYTQKSLSLSP
light: DIQMTQSPSSLSASVGDSVTITCQASTDISSHLNWYQQKPGKAPELLIYYGSHLLSGVPSRFSGSGSGTDFTFTISSLEAEDAATYYCGQGNRLPYTFGQGTKVEIERTVAAPSVFIFPPSDEQLKSGTASVVCLLNNFYPREAKVQWKVDNALQSGNSQESVTEQDSKDSTYSLSSTLTLSKADYEKHKVYACEVTHQGLSSPVTKSFNRGEC
notes: as for B1
B6 came in with a Kd of 160 nM.
